Laboratory results from the supplement of paper PMC7877785.
± gives the uncertainty stated by the source.

Assay: self-splicing fitness, log relative to wild type (ln ratio); higher = more splicing; Tetrahymena group I intron in knt gene, E. coli kanamycin selection, DiMSum; sequences stand for … in CUCUCU…GGAGGGAAAAGUUAUCAGGCAUGCACCUGGUAGCUAGUCUUUAAACCAAUAGAUUGCAUCGGUUUAAAAGGCAAGACCGUCAAAUUGCGGGAAAGGGGUCAACAGCCGUUCAGUACCAAGUCUCAGGGGAAACUUUGAGAUGGCCUUGCAAAGGGUAUGGUAAUAAGCUGACGGACAUGGUCCUAACCACGCAGCCAAGUCCUAAGUCAACAGAUCUUCUGUUGAUAUGGAUGCAGUUCACAGACUAAAUGUCGGUCGGGGAAGAUGUAUUCUUCUCAUAAGAUAUAGUCGGACCUCUCCUUAAUGGGAGCUAGCGGAUGAAGUGAUGCAACACUGGAGCCGCUGGGAACUAAUUUGUAUGCGAAAGUAUAUUGAUUAGUUUUGGAGUACUCGUGGUCG
Outline: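 Library with all eight P1ex-region intron nucleotides randomised, intron inside the knt kanamycin-resistance gene on pET-22b(+), in E. coli BL21(DE3). Cells grew overnight at 37°C or 30°C on LB agar with or without 25 μg/mL kanamycin (plus 100 μg/mL carbenicillin, 50 μM IPTG, 0.2% rhamnose), in six replicate transformations. Pooled colonies were amplicon-sequenced on Illumina HiSeq 2500. DiMSum fitness is the error-weighted combination of wild-type-normalised replicate fold changes, kanamycin versus none.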

| Sequence | self-splicing fitness (ln) (30 °C) | self-splicing fitness (ln) (37 °C) |
| --- | --- | --- |
| GUGGAGCAAUAUUACGAUCA | -2.19 ± 0.49 | -0.101 ± 0.2 |
| GUGGAGCAAUAUUACGAUCU | -2.68 ± 0.15 | -2.6 ± 0.22 |
| GUGGAGCAAUAUUACGCACA | -0.729 ± 0.22 | -0.814 ± 0.33 |
| GUGGAGCAAUAUUACGCCGA | -3.41 ± 0.43 | -1.25 ± 0.28 |
| GUGGAGCAAUAUUACGCGUC | -2.82 ± 0.35 | -1.76 ± 0.47 |
| GUGGAGCAAUAUUACGGAAC | – | -0.66 ± 0.45 |
| GUGGAGCAAUAUUACGGACC | -1.56 ± 0.38 | – |
| GUGGAGCAAUAUUACGGAGU | -3.56 ± 0.31 | -2.25 ± 0.29 |
| GUGGAGCAAUAUUACGGCGC | -1.42 ± 0.27 | -0.0496 ± 0.26 |
| GUGGAGCAAUAUUACGGGGC | -3.48 ± 0.48 | -1.93 ± 0.31 |
| GUGGAGCAAUAUUACGUGCG | -2.23 ± 0.15 | -2.9 ± 0.29 |
| GUGGAGCAAUAUUACGUGCU | -3.68 ± 0.2 | -3.09 ± 0.4 |
| GUGGAGCAAUAUUACGUGGG | -2.28 ± 0.13 | -2.7 ± 0.33 |
| GUGGAGCAAUAUUACGUUAG | -3.94 ± 0.24 | -2.35 ± 0.2 |
| GUGUAGCAAUAUUACGAAAG | -2.33 ± 0.24 | -1.4 ± 0.42 |
| GUGUAGCAAUAUUACGAAGC | -2.07 ± 0.17 | -0.684 ± 0.23 |
| GUGUAGCAAUAUUACGAGGA | -2.9 ± 0.44 | – |
| GUGUAGCAAUAUUACGCCUA | -1.92 ± 0.26 | -0.813 ± 0.24 |
| GUGUAGCAAUAUUACGCGAC | -1.33 ± 0.45 | -1.02 ± 0.27 |
| GUGUAGCAAUAUUACGCUCG | -1 ± 0.18 | -0.53 ± 0.21 |
| GUGUAGCAAUAUUACGCUGC | -3.26 ± 0.27 | -1.08 ± 0.23 |
| GUGUAGCAAUAUUACGCUUU | -3.2 ± 0.21 | -2.54 ± 0.22 |
| GUGUAGCAAUAUUACGGCCC | 0.713 ± 0.23 | 0.583 ± 0.3 |
| GUGUAGCAAUAUUACGGCUG | -3.23 ± 0.23 | -1.28 ± 0.25 |
| GUGUAGCAAUAUUACGGGCG | -2.61 ± 0.27 | -1.21 ± 0.18 |

| Sequence | self-splicing fitness (ln) (30 °C) | self-splicing fitness (ln) (37 °C) |
| --- | --- | --- |
| GUGUAGCAAUAUUACGGUGC | -2.8 ± 0.21 | -2.18 ± 0.18 |
| GUGUAGCAAUAUUACGUAAG | -1.56 ± 0.1 | -1.57 ± 0.16 |
| GUGUAGCAAUAUUACGUCGA | -1.11 ± 0.14 | -0.586 ± 0.12 |
| GUGUAGCAAUAUUACGUCGG | -2.7 ± 0.24 | -2.73 ± 0.33 |
| GUGUAGCAAUAUUACGUGUU | -3.14 ± 0.17 | -1.58 ± 0.12 |
| GUGUAGCAAUAUUACGUUCU | -0.842 ± 0.09 | 0.00858 ± 0.11 |
| GUGUAGCAAUAUUACGUUGA | -1.73 ± 0.14 | -3.07 ± 0.36 |
| GUUAAGCAAUAUUACGACCC | – | -0.221 ± 0.44 |
| GUUAAGCAAUAUUACGACCG | -2.84 ± 0.48 | -1.22 ± 0.4 |
| GUUAAGCAAUAUUACGAUAG | – | -2.07 ± 0.34 |
| GUUAAGCAAUAUUACGAUCC | -1.62 ± 0.13 | 0.0862 ± 0.16 |
| GUUAAGCAAUAUUACGCACC | -2.89 ± 0.3 | -2.13 ± 0.32 |
| GUUAAGCAAUAUUACGCCCA | 0.115 ± 0.22 | -0.355 ± 0.29 |
| GUUAAGCAAUAUUACGCGUU | -0.757 ± 0.08 | -1.07 ± 0.12 |
| GUUAAGCAAUAUUACGGAAC | – | -1.43 ± 0.34 |
| GUUAAGCAAUAUUACGGAAU | -2.75 ± 0.14 | -1.39 ± 0.13 |
| GUUAAGCAAUAUUACGGACU | -2.88 ± 0.2 | -1.8 ± 0.2 |
| GUUAAGCAAUAUUACGGGGU | -2.73 ± 0.28 | -2.88 ± 0.35 |
| GUUAAGCAAUAUUACGGUAA | -1.5 ± 0.15 | -1.28 ± 0.14 |
| GUUAAGCAAUAUUACGGUGA | -1.86 ± 0.15 | -1.09 ± 0.12 |
| GUUAAGCAAUAUUACGUAAG | -0.147 ± 0.098 | -0.0396 ± 0.13 |
| GUUAAGCAAUAUUACGUCCU | -0.303 ± 0.081 | 0.0564 ± 0.083 |
| GUUAAGCAAUAUUACGUUCG | -1.6 ± 0.13 | -0.376 ± 0.16 |
| GUUCAGCAAUAUUACGACGU | 0.000808 ± 0.063 | 0.108 ± 0.08 |
| GUUCAGCAAUAUUACGAUCA | -1.81 ± 0.19 | -0.536 ± 0.14 |

| Sequence | self-splicing fitness (ln) (30 °C) | self-splicing fitness (ln) (37 °C) |
| --- | --- | --- |
| GUUCAGCAAUAUUACGAUCG | -0.518 ± 0.13 | -0.548 ± 0.16 |
| GUUCAGCAAUAUUACGAUUU | -0.241 ± 0.078 | 0.331 ± 0.087 |
| GUUCAGCAAUAUUACGCAUG | -0.538 ± 0.1 | -1.02 ± 0.13 |
| GUUCAGCAAUAUUACGCCAA | -1.32 ± 0.21 | -1.72 ± 0.18 |
| GUUCAGCAAUAUUACGCUCA | -0.457 ± 0.11 | -0.298 ± 0.13 |
| GUUCAGCAAUAUUACGCUCU | -0.149 ± 0.09 | 0.0537 ± 0.097 |
| GUUCAGCAAUAUUACGCUUU | -0.726 ± 0.088 | 0.0124 ± 0.11 |
| GUUCAGCAAUAUUACGGCAC | -0.46 ± 0.21 | 0.473 ± 0.24 |
| GUUCAGCAAUAUUACGGCCC | -0.59 ± 0.19 | 0.24 ± 0.24 |
| GUUCAGCAAUAUUACGGCCG | -2.57 ± 0.24 | -0.72 ± 0.17 |
| GUUCAGCAAUAUUACGGCGG | -4.13 ± 0.47 | -2.06 ± 0.38 |
| GUUCAGCAAUAUUACGGUCA | -1.42 ± 0.12 | -0.536 ± 0.086 |
| GUUCAGCAAUAUUACGGUUU | -0.523 ± 0.052 | -0.0386 ± 0.061 |
| GUUCAGCAAUAUUACGUCCA | -0.981 ± 0.17 | -1.05 ± 0.21 |
| GUUCAGCAAUAUUACGUCGU | -0.64 ± 0.098 | 0.241 ± 0.11 |
| GUUCAGCAAUAUUACGUUGU | -1.68 ± 0.096 | -0.287 ± 0.11 |
| GUUGAGCAAUAUUACGAAUA | -1.6 ± 0.16 | -1.44 ± 0.18 |
| GUUGAGCAAUAUUACGACUU | -2.53 ± 0.2 | -1.92 ± 0.21 |
| GUUGAGCAAUAUUACGAGAC | – | -0.388 ± 0.31 |
| GUUGAGCAAUAUUACGAUAA | -3.96 ± 0.46 | -1.94 ± 0.26 |
| GUUGAGCAAUAUUACGAUAU | -2.32 ± 0.13 | -1.31 ± 0.12 |
| GUUGAGCAAUAUUACGAUUG | -4.05 ± 0.32 | -1.87 ± 0.27 |
| GUUGAGCAAUAUUACGCCGC | -3.06 ± 0.44 | -2.15 ± 0.5 |
| GUUGAGCAAUAUUACGCGCG | -1.82 ± 0.21 | -1.51 ± 0.23 |
| GUUGAGCAAUAUUACGGAAU | -3.08 ± 0.31 | – |

| Sequence | self-splicing fitness (ln) (30 °C) | self-splicing fitness (ln) (37 °C) |
| --- | --- | --- |
| GUUGAGCAAUAUUACGGGAG | – | -2.9 ± 0.38 |
| GUUGAGCAAUAUUACGGGUC | -2.23 ± 0.26 | -1.89 ± 0.28 |
| GUUGAGCAAUAUUACGGUUC | -3.63 ± 0.4 | -1.58 ± 0.26 |
| GUUGAGCAAUAUUACGUAGA | – | -0.549 ± 0.24 |
| GUUGAGCAAUAUUACGUAGG | -3.49 ± 0.22 | -2.93 ± 0.37 |
| GUUGAGCAAUAUUACGUAUC | -2.91 ± 0.15 | -1.15 ± 0.15 |
| GUUGAGCAAUAUUACGUUUG | -4.75 ± 0.32 | -2.6 ± 0.24 |
| GUUUAGCAAUAUUACGAAAG | -1.07 ± 0.18 | -0.341 ± 0.22 |
| GUUUAGCAAUAUUACGACCA | -1.56 ± 0.35 | -0.943 ± 0.35 |
| GUUUAGCAAUAUUACGACGA | -0.271 ± 0.17 | -0.957 ± 0.24 |
| GUUUAGCAAUAUUACGACUG | -4.08 ± 0.39 | -0.416 ± 0.23 |
| GUUUAGCAAUAUUACGAUGC | -0.832 ± 0.089 | 0.32 ± 0.12 |
| GUUUAGCAAUAUUACGAUUA | -1.93 ± 0.16 | -1.01 ± 0.2 |
| GUUUAGCAAUAUUACGCCAA | -1.57 ± 0.27 | -1.58 ± 0.24 |
| GUUUAGCAAUAUUACGCCGA | -2.93 ± 0.4 | – |
| GUUUAGCAAUAUUACGCUAA | -3.38 ± 0.32 | -1.4 ± 0.21 |
| GUUUAGCAAUAUUACGCUCC | -1.82 ± 0.37 | 1.01 ± 0.34 |
| GUUUAGCAAUAUUACGGACG | -1.76 ± 0.15 | -0.693 ± 0.15 |
| GUUUAGCAAUAUUACGGGAA | -2.96 ± 0.23 | -2.04 ± 0.19 |
| GUUUAGCAAUAUUACGGGGG | -3.68 ± 0.37 | -1.82 ± 0.26 |
| GUUUAGCAAUAUUACGGUUA | -1.68 ± 0.18 | -0.49 ± 0.12 |
| GUUUAGCAAUAUUACGUACA | -0.582 ± 0.2 | -0.508 ± 0.22 |
| GUUUAGCAAUAUUACGUGCA | -0.885 ± 0.099 | -0.958 ± 0.11 |
